Tests used:
[1] = test system: K4 kissing-loop RNA reporter; test: apparent KD of K4 kissing-loop reporter; higher = weaker reporter binding; settings: Eterna round: R107;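 note: bound reporter read as fluorescence of individual clusters on recovered sequencing chips by microscopy, with normalized cluster intensities fitted with a binding model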
Procedure: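 RNA-MaP round R107: designed RNA switches with theophylline, tryptophan, arginine or FMN aptamers are transcribed on-chip within common flanks. They are titrated with a labelled K4 kissing-loop RNA reporter in RNA-MaP buffer (100 mM Tris pH 7.5, 80 mM KCl, 4 mM MgCl2), without ligand or with the indicated ligand. Median apparent KD per design.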

MS2 coat protein = test: apparent KD of MS2 coat protein; designed switch direction (-1 OFF switch, 1 ON switch): -1; higher = weaker reporter binding
In short: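 Normalised cluster fluorescence was curve-fitted, and each design's median over clusters is its apparent KD. Before this, SNAP-549-labelled MS2 coat protein was titrated from 0.7 or 1.5 nM, doubling to 3 µM, over RNA switches transcribed on Illumina chips by stalled E. coli RNA polymerase. Titrations had no input, 200 uM small-molecule ligand, or an oligonucleotide input, and steps lasted 0.8–1.5 h (lowest) to 10–20 min (highest).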

[2] = input ligand: theophylline 20 uM
[3] = input ligand: tryptophan 2.4 mM
[4] = input ligand: microRNA oligo, concentration not stated
[5] = Eterna round: R95, input ligand: microRNA oligo, concentration not stated

**Q.** For “AAAAUAAACCAGUGAUGUUGGUGUCCAGAUACCAGCGACAAAAGUCGCCCUUGGCAGCUGUGGACGUACAAAAUAAGUACGUCCU [MatMod 1 - Jieux - Same State - Theophylline A]”, which “apparent KD of K4 kissing-loop reporter” value ([1]; input ligand: FMN 200 uM) is on record?
**A.** 390 nM

**Q.** And the “apparent KD of K4 kissing-loop reporter” value ([1]; input ligand: arginine 13.2 mM)?
**A.** 271 nM

**Q.** What about the “apparent KD of K4 kissing-loop reporter” value ([1]; input ligand: none) of the same sequence?
**A.** 393 nM

**Q.** And the “apparent KD of K4 kissing-loop reporter” value [1, 2]?
**A.** 256 nM

**Q.** And the “apparent KD of K4 kissing-loop reporter” value [1, 3]?
**A.** 316 nM

**Q.** With “AAACAUCACUGGGAGUGAUGUUCUCAGUGACGAGGACCGGUACGGCCGCCACUCGCGAGAGAUAUAAAUGAGUAAUGACAUCAUU [Excl Tryptophan A V2]” as the sequence, how does the “apparent KD of K4 kissing-loop reporter” value ([1]; input ligand: FMN 200 uM) read?
**A.** 276 nM

**Q.** And the “apparent KD of K4 kissing-loop reporter” value ([1]; input ligand: arginine 13.2 mM)?
**A.** 236 nM

**Q.** What about the “apparent KD of K4 kissing-loop reporter” value ([1]; input ligand: none) of the same sequence?
**A.** 280 nM

**Q.** What about the “apparent KD of K4 kissing-loop reporter” value [1, 2] of the same sequence?
**A.** 258 nM

**Q.** What about the “apparent KD of K4 kissing-loop reporter” value [1, 3] of the same sequence?
**A.** 325 nM

**Q.** Which “apparent KD of K4 kissing-loop reporter” value ([1]; input ligand: FMN 200 uM) does the source give for “AAACAUUGGUCGGAUACCAGCUUGAUCGGAAAACGAUCUGCUGGAGUGAUGUUCCAAUAAAGCCCUUGGCAGCCGACCGAUGAAA [MAT - Same State Theophlline B - Mod of Eli - D14]” here?
**A.** 814 nM

**Q.** And the “apparent KD of K4 kissing-loop reporter” value ([1]; input ligand: arginine 13.2 mM)?
**A.** 679 nM

**Q.** And the “apparent KD of K4 kissing-loop reporter” value ([1]; input ligand: none)?
**A.** 1070 nM

**Q.** And the “apparent KD of K4 kissing-loop reporter” value [1, 2]?
**A.** 747 nM

**Q.** What about the “apparent KD of K4 kissing-loop reporter” value [1, 3] of the same sequence?
**A.** 780 nM

**Q.** Which “apparent KD of MS2 coat protein” value (MS2 coat protein; [4]) does the source give for “UUUAUUUUGCAAGGAUAUGUUUAAUUUUAGUUUCCUUAUACAUGAGGAUCACCCAUGUUAUACUUACAGAAGGUGCAUAAUUUU [JR_ExcNG2_Sub037] (Eterna round: R96, puzzle: Exclusion NG 2)” here?
**A.** 68.7 nM

**Q.** For “UUUCCCGUUCAGGCUGGAAACAUGAGGAUCACCCAUGUUCAAUCGGUUCUGUUAGCUGCUCGUCUUUUACACUUUCC [Eternabot (L1) Solution 39] (Eterna round: R97, puzzle: Sensor, turn-off variant 1)”, which “apparent KD of MS2 coat protein” value (MS2 coat protein; input ligand: FMN 200 uM) is on record?
**A.** 20.5 nM

**Q.** What about the “apparent KD of MS2 coat protein” value (MS2 coat protein; input ligand: none) of the same sequence?
**A.** 20.3 nM

**Q.** For “UUUCCCUGUGUGAGGAUAUACUUGUUUGGGUUUUUGUAGAAGGCACAUGAGGAUCACCCAUGUACUCUGUCCUG [JR_BME4_Sub022] (puzzle: Brourd's mod of Exclusion 4)”, which “apparent KD of MS2 coat protein” value (MS2 coat protein; [5]) is on record?
**A.** 22.1 nM

**Q.** Which “apparent KD of MS2 coat protein” value (MS2 coat protein; [4]) does the source give for “UUUGAUUGCACAGGAUAUUGUCAUUUGAGUUGUCAAGAAGGGUGUACAUGAGGAUCACCCAUGUAAUGGUUGCCUCGCUGACUU [JR_ExcNG1_Sub008] (Eterna round: R96, puzzle: Exclusion NG 1)” here?
**A.** 77.1 nM

**Q.** Which results are given for “UUUGCAAGCUAAAGAUCCCACAUGAGGAUCACCCAUGUUGCUGCCGUGAGGUAGCAUUUAACUUUUGCUCGUCUUAU [JL TOV1 3.49] (Eterna round: R97, puzzle: Sensor, turn-off variant 1)”?
**A.** apparent KD of MS2 coat protein (MS2 coat protein; input ligand: FMN 200 uM): 282 nM; apparent KD of MS2 coat protein (MS2 coat protein; input ligand: none): 300 nM

**Q.** With “UUUGUACAUGAGGAUCACCCAUGUUAGGAUAUCUCGCCGUCGGCUUGCCGACGGUAUUAGAGAAGGGACAAGGG [JL Tixe mod 8] (puzzle: Exclusion 1)” as the sequence, how does the “apparent KD of MS2 coat protein” value (MS2 coat protein; [5]) read?
**A.** 94.2 nM

**Q.** “UUUGUUUAUGUAGGAUAUGCCUGGCGUGCCUUCGCAGAAGGACAUGAGGAUCACCCAUGUAUUGCGGUCUGCGUUCAGAUCGCA [salish99_ExNG1_r4_031] (Eterna round: R96, puzzle: Exclusion NG 1)” was tested. Which “apparent KD of MS2 coat protein” value (MS2 coat protein; input ligand: FMN 200 uM) did it give?
**A.** 72.6 nM

**Q.** And the “apparent KD of MS2 coat protein” value (MS2 coat protein; [4])?
**A.** 30 nM

**Q.** What about the “apparent KD of MS2 coat protein” value (MS2 coat protein; input ligand: none) of the same sequence?
**A.** 42.5 nM

**Q.** How did the “apparent KD of MS2 coat protein” value (MS2 coat protein; [5]) turn out when “UUUUAACAUGAGGAUCACCCAUGUGAGGAUAUCGAAAUUUAUAUUAAUAUUAAUAUAACGAGAAGGCACAUUUU [JMF 23] (puzzle: Exclusion 1)” was run?
**A.** 47.2 nM

**Q.** For “UUUUAACAUGAGGAUCACCCAUGUGAGGAUAUCGAAAUUUAUAUUAAUAUUAAUAUUACGAGAAGGCACAUUUU [JMF 26] (puzzle: Exclusion 1)”, which “apparent KD of MS2 coat protein” value (MS2 coat protein; [5]) is on record?
**A.** 77 nM

**Q.** “UUUUAACAUGAGGAUCACCCAUGUGAGGAUAUCGAAAUUUAUAUUAAUAUUAUUAUAUCGAGAAGGCACAUUUU [JMF 40] (puzzle: Exclusion 1)” was tested. Which “apparent KD of MS2 coat protein” value (MS2 coat protein; [5]) did it give?
**A.** 86.6 nM

**Q.** How did the “apparent KD of MS2 coat protein” value (MS2 coat protein; [5]) turn out when “UUUUAACAUGAGGAUCACCCAUGUGAGGAUAUCGAAAUUUAUAUUAAUAUUAUUUUAACGAGAAGGCACAUUUU [JMF 47] (puzzle: Exclusion 1)” was run?
**A.** 67.2 nM

**Q.** Which “apparent KD of MS2 coat protein” value (MS2 coat protein; [5]) does the source give for “UUUUAACAUGAGGAUCACCCAUGUGAGGAUAUCGAAAUUUAUAUUAAUAUUUAUUAUACGAGAAGGCACAUUUU [JMF 62] (puzzle: Exclusion 1)” here?
**A.** 77.5 nM

**Q.** With “UUUUAACAUGAGGAUCACCCAUGUGAGGAUAUCGAAAUUUAUAUUUAUAUUAAUAAAUCGAGAAGGCACAUUUU [JMF 76] (puzzle: Exclusion 1)” as the sequence, how does the “apparent KD of MS2 coat protein” value (MS2 coat protein; [5]) read?
**A.** 119 nM

**Q.** For “UUUUAACAUGAGGAUCACCCAUGUGAGGAUAUCGAAAUUUAUAUUUAUAUUUAUAUUUCGAGAAGGCACAUUUU [JMF 97] (puzzle: Exclusion 1)”, which “apparent KD of MS2 coat protein” value (MS2 coat protein; [5]) is on record?
**A.** 131 nM

— the supplement of paper PMC9170038
